T1: FLP recombinase (Saccharomyces cerevisiae, UniProt P03870 P03870:1-423)
T1 sequence: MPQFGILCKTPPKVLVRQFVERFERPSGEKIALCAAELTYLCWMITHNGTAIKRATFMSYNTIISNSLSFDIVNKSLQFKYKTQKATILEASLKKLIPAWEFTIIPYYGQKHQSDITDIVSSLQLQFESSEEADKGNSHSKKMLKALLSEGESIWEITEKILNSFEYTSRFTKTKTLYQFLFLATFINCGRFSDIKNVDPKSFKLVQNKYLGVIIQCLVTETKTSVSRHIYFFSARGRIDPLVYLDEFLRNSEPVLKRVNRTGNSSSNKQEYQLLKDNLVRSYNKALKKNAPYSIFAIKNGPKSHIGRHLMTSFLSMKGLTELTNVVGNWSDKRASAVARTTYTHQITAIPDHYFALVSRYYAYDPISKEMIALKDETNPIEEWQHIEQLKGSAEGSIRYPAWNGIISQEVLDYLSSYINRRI

B1: f72 mutant FRT (dsDNA)
DNA 1: TCGAGGACGTCGAAGTTCCTATACTTTCTACAGAATAGGAACTTCTCCGGAA
DNA 2: CTAGTTCCGGAGAAGTTCCTATTCTGTAGAAAGTATAGGAACTTCGACGTCC
B2: f2262 mutant FRT (dsDNA)
DNA 1: TCGAGGACGTCGAAGTTCCTATACTATCTTGAGAATAGGAACTTCTCCGGAA
DNA 2: CTAGTTCCGGAGAAGTTCCTATTCTCAAGATAGTATAGGAACTTCGACGTCC
B3: f2151 mutant FRT (dsDNA)
DNA 1: TCGAGGACGTCGAAGTTCCTATACTCTCCAGAGAATAGGAACTTCTCCGGAA
DNA 2: CTAGTTCCGGAGAAGTTCCTATTCTCTGGAGAGTATAGGAACTTCGACGTCC
B4: f2161 mutant FRT (dsDNA)
DNA 1: TCGAGGACGTCGAAGTTCCTATACTCTCTGGAGAATAGGAACTTCTCCGGAA
DNA 2: CTAGTTCCGGAGAAGTTCCTATTCTCCAGAGAGTATAGGAACTTCGACGTCC
B5: f61 mutant FRT (dsDNA)
DNA 1: TCGAGGACGTCGAAGTTCCTATACTTTCTGGAGAATAGGAACTTCTCCGGAA
DNA 2: CTAGTTCCGGAGAAGTTCCTATTCTCCAGAAAGTATAGGAACTTCGACGTCC
B6: F3 mutant FRT (dsDNA)
DNA 1: TCGAGGACGTCGAAGTTCCTATACTATTTGAAGAATAGGAACTTCTCCGGAA
DNA 2: CTAGTTCCGGAGAAGTTCCTATTCTTCAAATAGTATAGGAACTTCGACGTCC

Biological target: T1, FLP recombinase
Test: recombination of two identical sites; same buffer
Conditions: tags: untagged; expressed from recombinant adenovirus AxCAFLP (2 micron DNA FLP gene) in 293 cells; chain copies: 4
Description: Whether or not FLP-dependent recombination reaction caused between the two mutant FRT sequences was studied by the assay described below. The DraI-digested plasmid DNA (1.5 μg) prepared in Example 2 and the cell extract containing FLP (25 μl) prepared in Example 1 were added to buffer containing 50 mM Tris-HCl (pH 7.5)/10 mM MgCl₂/5 mM DTT in its final concentration (the volume of reaction solution: 50 μl), and the reaction mixture was incubated at 30° C. for 30 minutes. After the termination of the reaction, 200 μl of sterilized water and 50 […] of 20 mM EDTA solution (pH 8.0) were added to the reaction mixture. The reaction mixture was extracted with phenol/chloroform and with chloroform. The resulting product was precipitated with ethanol, to obtain DNA. The resulting DNA was then solubilized in 20 μl of TE buffer (pH 8.0) containing RNaseA (20 μg/ml). Next, an entire volume of the resultant was digested with restriction enzyme NcoI, and subjected to electrophoresis on agarose gel. Thereafter, DNA bands detected by ethidium bromide (EtBr) staining were analyzed.
In order to numerically express the reaction efficiency, the ratio of […] was calculated as the recombination ratio (%) between the two FRT sequences.

Binder | activity [%]
B1 | 10.9
B2 | 3.8
B3 | 2.9
B4 | 4.5
B5 | 2.6
B6 | 3.1
